Data as given in article PMC9482650, “Quantitative fragmentomics allow affinity mapping of interactomes” (Nature Communications, 2022).
Numbering of substitutions follows the chain as printed.

T1: NHERF3_3, Q5T2W1
T1 sequence (Q5T2W1 238-333, limits assumed, looked up): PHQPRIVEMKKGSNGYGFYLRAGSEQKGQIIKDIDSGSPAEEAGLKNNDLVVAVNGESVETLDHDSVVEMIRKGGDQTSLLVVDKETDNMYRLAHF

T2: LIN7C, Q9NUP9
T2 sequence (Q9NUP9 88-185, limits assumed, looked up): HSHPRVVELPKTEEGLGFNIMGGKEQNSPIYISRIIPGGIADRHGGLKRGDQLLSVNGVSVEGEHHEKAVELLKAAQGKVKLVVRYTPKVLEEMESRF

T3: APBA1_2, Q02410
T3 sequence (Q02410 742-832, limits assumed, looked up): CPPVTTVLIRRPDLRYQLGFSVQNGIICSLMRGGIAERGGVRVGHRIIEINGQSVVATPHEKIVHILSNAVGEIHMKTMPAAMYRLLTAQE

T4: DLG3_3, Q92796
T4 sequence (Q92796 374-475, limits assumed, looked up): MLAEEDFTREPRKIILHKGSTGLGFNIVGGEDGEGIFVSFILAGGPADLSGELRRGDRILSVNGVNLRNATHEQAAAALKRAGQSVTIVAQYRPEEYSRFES

T5: RHPN1, Q8TCX5
T5 sequence (Q8TCX5 508-602, limits assumed, looked up): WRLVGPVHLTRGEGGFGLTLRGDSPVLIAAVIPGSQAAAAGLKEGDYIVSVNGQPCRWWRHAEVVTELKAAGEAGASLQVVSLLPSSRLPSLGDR

T6: SNTA1, Q13424
T6 sequence (Q13424 82-180, limits assumed, looked up): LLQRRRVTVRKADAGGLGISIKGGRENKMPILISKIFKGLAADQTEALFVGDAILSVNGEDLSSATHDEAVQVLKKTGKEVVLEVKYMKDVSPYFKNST

T7: HTRA3, P83110
T7 sequence (P83110 354-453, limits assumed, looked up): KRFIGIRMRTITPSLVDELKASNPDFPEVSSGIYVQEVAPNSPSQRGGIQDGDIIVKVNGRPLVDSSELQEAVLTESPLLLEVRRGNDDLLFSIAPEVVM

T8: LIN7B, Q9HAP6
T8 sequence (Q9HAP6 88-185, limits assumed, looked up): T2 sequence (Q9NUP9 88-185, limits assumed, looked up) with S2A, E13D, I35V, I40V, H65Q, K79S, K89R, S96A

B1: CXCR1, P25024 (peptide)
chain: SSSVNVSSNL
B2: KCNJ9, Q92806 (peptide)
chain: LPPPESESKV
B3: SLC5A12, Q1EHB4 (peptide)
chain: NNMAFETTHF

How the values were obtained:
Assay in all cases: holdup assay
Set-up in all cases: key: below the threshold = too weak to quantify, mostly under pKd 3.1 to 4
Details in all cases: plain residues with an end cap or a label only (N-terminal biotin on a linker: ado-ado)
NHERF3_3, Q5T2W1 = molecular target: T1, NHERF3_3, Q5T2W1
Inadl_8, Q8NI35 = molecular target: Inadl_8, Q8NI35
LIN7C, Q9NUP9 = molecular target: T2, LIN7C, Q9NUP9
LNX1_2, Q8TBB1 = molecular target: LNX1_2, Q8TBB1
ARHGEF12, Q9NZN5-2 = molecular target: ARHGEF12, Q9NZN5-2
MAST2, Q6P0Q8 = molecular target: MAST2, Q6P0Q8
PARD3_3, Q8TEW0 = molecular target: PARD3_3, Q8TEW0
MAGI2_3, Q86UL8 = molecular target: MAGI2_3, Q86UL8
FRMPD3, Q5JV73 = molecular target: FRMPD3, Q5JV73
FRMPD2_2, Q68DX3 = molecular target: FRMPD2_2, Q68DX3
APBA1_2, Q02410 = molecular target: T3, APBA1_2, Q02410
DLG2_2, Q15700 = molecular target: DLG2_2, Q15700
GRIP2_3, Q9C0E4 = molecular target: GRIP2_3, Q9C0E4
GORASP1, Q9BQQ3 = molecular target: GORASP1, Q9BQQ3
DLG3_3, Q92796 = molecular target: T4, DLG3_3, Q92796
DLG1_1, Q12959 = molecular target: DLG1_1, Q12959
RHPN1, Q8TCX5 = molecular target: T5, RHPN1, Q8TCX5
MAGI1_2, Q96QZ7 = molecular target: MAGI1_2, Q96QZ7
MAGI3_2, Q5TCQ9 = molecular target: MAGI3_2, Q5TCQ9
SNTA1, Q13424 = molecular target: T6, SNTA1, Q13424
Inadl_10, Q8NI35 = molecular target: Inadl_10, Q8NI35
DLG4_3, P78352 = molecular target: DLG4_3, P78352
Inadl_4, Q8NI35 = molecular target: Inadl_4, Q8NI35
HTRA3, P83110 = molecular target: T7, HTRA3, P83110
NHERF4_4, Q86UT5 = molecular target: NHERF4_4, Q86UT5
Inadl_1, Q8NI35 = molecular target: Inadl_1, Q8NI35
FRMPD2_1, Q68DX3 = molecular target: FRMPD2_1, Q68DX3
GOPC, Q9HD26 = molecular target: GOPC, Q9HD26
LNX1_3, Q8TBB1 = molecular target: LNX1_3, Q8TBB1
LIN7B, Q9HAP6 = molecular target: T8, LIN7B, Q9HAP6
Inadl_6, Q8NI35 = molecular target: Inadl_6, Q8NI35
Inadl_6, Q8NI35, sequence (Q8NI35 1058-1167): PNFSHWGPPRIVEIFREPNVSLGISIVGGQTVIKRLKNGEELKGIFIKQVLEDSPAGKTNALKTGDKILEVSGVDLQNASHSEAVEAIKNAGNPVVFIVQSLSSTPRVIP

GRIP2_3, Q9C0E4, sequence (Q9C0E4 238-339): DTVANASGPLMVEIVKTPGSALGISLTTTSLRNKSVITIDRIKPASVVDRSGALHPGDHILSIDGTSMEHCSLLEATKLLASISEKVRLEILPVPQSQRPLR
Inadl_1, Q8NI35, sequence (Q8NI35 113-229): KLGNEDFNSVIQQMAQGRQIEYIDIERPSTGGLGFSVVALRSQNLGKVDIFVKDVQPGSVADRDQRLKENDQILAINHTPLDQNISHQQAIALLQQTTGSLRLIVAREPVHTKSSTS
FRMPD3, Q5JV73, sequence (Q5JV73 12-100): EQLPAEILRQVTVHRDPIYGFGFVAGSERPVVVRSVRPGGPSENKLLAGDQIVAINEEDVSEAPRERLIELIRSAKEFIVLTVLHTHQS
FRMPD2_1, Q68DX3, sequence (Q68DX3 770-861): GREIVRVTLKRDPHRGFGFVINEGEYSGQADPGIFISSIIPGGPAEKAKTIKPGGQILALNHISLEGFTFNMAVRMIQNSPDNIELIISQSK
ARHGEF12, Q9NZN5-2, sequence (Q9NZN5 other isoform, or with tags, fused parts or gaps): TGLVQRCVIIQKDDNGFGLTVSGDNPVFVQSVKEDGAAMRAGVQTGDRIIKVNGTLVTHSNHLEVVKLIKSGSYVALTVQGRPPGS
DLG2_2, Q15700, sequence (Q15700 189-283): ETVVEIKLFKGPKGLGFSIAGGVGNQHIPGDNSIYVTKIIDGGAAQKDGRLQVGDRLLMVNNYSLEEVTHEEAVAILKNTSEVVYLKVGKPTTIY
MAST2, Q6P0Q8, sequence (Q6P0Q8 1099-1202): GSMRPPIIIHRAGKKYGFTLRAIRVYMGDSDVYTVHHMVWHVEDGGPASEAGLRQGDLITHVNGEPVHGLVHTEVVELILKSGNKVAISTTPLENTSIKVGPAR
MAGI1_2, Q96QZ7, sequence (Q96QZ7 456-580): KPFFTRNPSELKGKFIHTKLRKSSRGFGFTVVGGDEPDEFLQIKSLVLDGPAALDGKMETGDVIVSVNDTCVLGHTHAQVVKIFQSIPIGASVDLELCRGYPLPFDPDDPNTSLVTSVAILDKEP
DLG4_3, P78352, sequence (P78352 306-403): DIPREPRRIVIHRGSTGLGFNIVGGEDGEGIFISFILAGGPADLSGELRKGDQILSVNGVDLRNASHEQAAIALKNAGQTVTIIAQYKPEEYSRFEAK
Inadl_4, Q8NI35, sequence (Q8NI35 547-651): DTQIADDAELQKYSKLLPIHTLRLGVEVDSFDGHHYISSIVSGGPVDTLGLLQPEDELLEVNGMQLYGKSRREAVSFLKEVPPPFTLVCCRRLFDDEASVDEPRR
MAGI3_2, Q5TCQ9, sequence (Q5TCQ9 398-503): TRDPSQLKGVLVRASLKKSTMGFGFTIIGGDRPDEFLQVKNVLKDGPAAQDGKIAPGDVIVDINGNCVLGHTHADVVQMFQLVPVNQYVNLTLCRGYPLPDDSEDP
LNX1_3, Q8TBB1, sequence (Q8TBB1 500-596): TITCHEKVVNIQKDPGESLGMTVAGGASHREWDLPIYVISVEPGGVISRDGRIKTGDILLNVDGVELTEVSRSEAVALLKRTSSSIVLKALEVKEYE
MAGI2_3, Q86UL8, sequence (Q86UL8 600-682): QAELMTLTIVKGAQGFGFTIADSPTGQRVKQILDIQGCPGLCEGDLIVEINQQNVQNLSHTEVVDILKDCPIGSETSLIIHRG
Inadl_10, Q8NI35, sequence (Q8NI35 1673-1763): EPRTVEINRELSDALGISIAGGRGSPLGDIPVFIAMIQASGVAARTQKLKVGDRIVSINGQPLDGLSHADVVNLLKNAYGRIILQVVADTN
PARD3_3, Q8TEW0, sequence (Q8TEW0 582-685): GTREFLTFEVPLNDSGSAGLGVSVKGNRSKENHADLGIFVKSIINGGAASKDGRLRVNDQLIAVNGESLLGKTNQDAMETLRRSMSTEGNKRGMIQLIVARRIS
GORASP1, Q9BQQ3, sequence (Q9BQQ3 1-208): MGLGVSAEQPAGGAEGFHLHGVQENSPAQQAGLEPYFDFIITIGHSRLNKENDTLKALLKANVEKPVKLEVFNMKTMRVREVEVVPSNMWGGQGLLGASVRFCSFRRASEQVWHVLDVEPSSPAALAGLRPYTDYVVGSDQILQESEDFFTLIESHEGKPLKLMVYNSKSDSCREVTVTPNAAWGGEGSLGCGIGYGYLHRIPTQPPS
FRMPD2_2, Q68DX3, sequence (Q68DX3 944-1038): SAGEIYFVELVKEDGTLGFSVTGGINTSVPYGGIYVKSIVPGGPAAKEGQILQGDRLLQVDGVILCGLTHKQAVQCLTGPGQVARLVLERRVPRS
Inadl_8, Q8NI35, sequence (Q8NI35 1425-1530): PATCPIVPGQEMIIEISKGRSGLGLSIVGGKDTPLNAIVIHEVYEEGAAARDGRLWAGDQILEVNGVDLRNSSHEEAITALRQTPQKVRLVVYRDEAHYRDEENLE
NHERF4_4, Q86UT5, sequence (Q86UT5 464-550): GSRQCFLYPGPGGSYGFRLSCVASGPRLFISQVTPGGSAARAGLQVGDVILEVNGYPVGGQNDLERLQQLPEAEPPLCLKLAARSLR
LNX1_2, Q8TBB1, sequence (Q8TBB1 371-470): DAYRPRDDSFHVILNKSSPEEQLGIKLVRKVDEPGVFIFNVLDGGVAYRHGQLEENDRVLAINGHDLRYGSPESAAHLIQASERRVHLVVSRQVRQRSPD

Binder | pKd (NHERF3_3, Q5T2W1) | pKd (Inadl_8, Q8NI35) | pKd (LIN7C, Q9NUP9) | pKd (LNX1_2, Q8TBB1) | pKd (ARHGEF12, Q9NZN5-2) | pKd (MAST2, Q6P0Q8) | pKd (PARD3_3, Q8TEW0) | pKd (MAGI2_3, Q86UL8) | pKd (FRMPD3, Q5JV73) | pKd (FRMPD2_2, Q68DX3) | pKd (APBA1_2, Q02410) | pKd (DLG2_2, Q15700) | pKd (GRIP2_3, Q9C0E4) | pKd (GORASP1, Q9BQQ3) | pKd (DLG3_3, Q92796) | pKd (DLG1_1, Q12959) | pKd (RHPN1, Q8TCX5) | pKd (MAGI1_2, Q96QZ7) | pKd (MAGI3_2, Q5TCQ9) | pKd (SNTA1, Q13424) | also measured
B1 | below the threshold | below the threshold | below the threshold | below the threshold | 4.24 | 5.13 | below the threshold | 3.5 | below the threshold | below the threshold | below the threshold | below the threshold | below the threshold | below the threshold | below the threshold | below the threshold | 3.67 | below the threshold | below the threshold | below the threshold | pKd (Inadl_10, Q8NI35): below the threshold; pKd (DLG4_3, P78352): below the threshold; pKd (Inadl_4, Q8NI35): below the threshold; pKd (HTRA3, P83110): below the threshold; pKd (NHERF4_4, Q86UT5): below the threshold; pKd (Inadl_1, Q8NI35): below the threshold; pKd (FRMPD2_1, Q68DX3): below the threshold; pKd (GOPC, Q9HD26): below the threshold; pKd (LNX1_3, Q8TBB1): below the threshold; pKd (LIN7B, Q9HAP6): 3.58; pKd (Inadl_6, Q8NI35): below the threshold
B2 | below the threshold | below the threshold | below the threshold | below the threshold | below the threshold | 4.9 | below the threshold | 3.64 | below the threshold | 3.56 | below the threshold | below the threshold | below the threshold | below the threshold | below the threshold | below the threshold | 4.44 | below the threshold | 4 | 3.99 | pKd (Inadl_10, Q8NI35): below the threshold; pKd (DLG4_3, P78352): below the threshold; pKd (Inadl_4, Q8NI35): below the threshold; pKd (HTRA3, P83110): below the threshold; pKd (NHERF4_4, Q86UT5): below the threshold; pKd (Inadl_1, Q8NI35): below the threshold; pKd (FRMPD2_1, Q68DX3): below the threshold; pKd (GOPC, Q9HD26): below the threshold; pKd (LNX1_3, Q8TBB1): below the threshold; pKd (LIN7B, Q9HAP6): 3.77; pKd (Inadl_6, Q8NI35): below the threshold
B3 | below the threshold | below the threshold | below the threshold | below the threshold | below the threshold | 5.56 | below the threshold | below the threshold | 3.5 | below the threshold | 3.62 | below the threshold | below the threshold | below the threshold | below the threshold | below the threshold | 4.08 | below the threshold | below the threshold | below the threshold | pKd (Inadl_10, Q8NI35): below the threshold; pKd (DLG4_3, P78352): below the threshold; pKd (Inadl_4, Q8NI35): below the threshold; pKd (HTRA3, P83110): below the threshold; pKd (NHERF4_4, Q86UT5): below the threshold; pKd (Inadl_1, Q8NI35): below the threshold; pKd (FRMPD2_1, Q68DX3): below the threshold; pKd (GOPC, Q9HD26): below the threshold; pKd (LNX1_3, Q8TBB1): below the threshold; pKd (LIN7B, Q9HAP6): 3.62; pKd (Inadl_6, Q8NI35): below the threshold
